One assay has as its target ADAMTS5 (human) (UniProt Q9UNA0). Put plainly: cell-based or functional assay.
Another assay has as its target ADAMTS4 (human) (UniProt O75173). Put plainly: cell-based or functional assay.

Sequence of ADAMTS5 (human) (Q9UNA0 262-622 limits assumed): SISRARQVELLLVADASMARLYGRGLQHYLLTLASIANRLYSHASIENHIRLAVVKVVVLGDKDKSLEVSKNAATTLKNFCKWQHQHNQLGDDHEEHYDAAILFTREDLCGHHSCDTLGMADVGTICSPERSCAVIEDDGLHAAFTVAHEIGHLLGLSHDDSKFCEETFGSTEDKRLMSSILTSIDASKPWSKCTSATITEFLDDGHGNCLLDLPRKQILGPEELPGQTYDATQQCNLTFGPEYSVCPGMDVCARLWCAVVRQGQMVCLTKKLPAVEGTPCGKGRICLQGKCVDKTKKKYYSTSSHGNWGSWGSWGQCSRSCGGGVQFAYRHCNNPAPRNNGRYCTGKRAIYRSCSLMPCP
Sequence of ADAMTS4 (human) (O75173 213-685 limits assumed): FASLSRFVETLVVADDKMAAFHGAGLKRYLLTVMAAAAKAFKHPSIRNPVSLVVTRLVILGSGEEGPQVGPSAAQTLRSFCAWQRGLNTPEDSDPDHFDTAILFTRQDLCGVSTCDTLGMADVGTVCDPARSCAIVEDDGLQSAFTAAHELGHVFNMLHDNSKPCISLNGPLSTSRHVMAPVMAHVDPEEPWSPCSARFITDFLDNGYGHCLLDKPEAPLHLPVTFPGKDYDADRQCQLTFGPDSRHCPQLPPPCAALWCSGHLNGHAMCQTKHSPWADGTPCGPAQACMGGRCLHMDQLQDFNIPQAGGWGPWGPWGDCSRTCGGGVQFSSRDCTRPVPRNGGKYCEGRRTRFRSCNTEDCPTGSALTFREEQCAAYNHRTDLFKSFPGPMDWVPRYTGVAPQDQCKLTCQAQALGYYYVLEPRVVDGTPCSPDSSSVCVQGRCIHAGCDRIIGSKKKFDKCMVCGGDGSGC

In the assay with ADAMTS5 (human), “purified human A2M (from UniProt P01023 24-1474)” gave an IC50, inhibition of cartilage catabolism in bovine cartilage explants of 7000 µg/mL; an IC50 needed to inhibit cartilage catabolism of 7 µg/mL; a Maximum inhibition of cartilage catabolism in bovine cartilage explants of 90%. In the assay with ADAMTS4 (human), the IC50 needed to inhibit cartilage catabolism was 3 µg/mL.

Source of the values: US20230250154A1.
